Measurements: PMC3881179
Where two headings read alike, the source gives them in different places.

Tests used:
[1] = target: T1, STING C-terminal region (hSTING-C) (human, UniProt Q86WV6 152-379); assay: fluorescence anisotropy
STING C-terminal region [2] = target: T2, STING C-terminal region (UniProt Q86WV6 181-379); assay: SPR
STING C-terminal region [3] = target: T2, STING C-terminal region; assay: pull-down
[4] = target: T1, STING C-terminal region (hSTING-C); assay: fluorescence anisotropy; remark: listed apart in the source

T1 sequence (Q86WV6 152-379): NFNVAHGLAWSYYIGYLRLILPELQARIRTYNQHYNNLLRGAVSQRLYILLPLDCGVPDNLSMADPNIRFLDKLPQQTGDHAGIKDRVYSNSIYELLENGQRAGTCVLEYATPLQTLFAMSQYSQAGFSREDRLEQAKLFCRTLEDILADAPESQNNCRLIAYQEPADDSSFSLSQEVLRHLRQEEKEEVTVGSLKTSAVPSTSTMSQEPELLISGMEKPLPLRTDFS
T2 sequence (Q86WV6 181-379): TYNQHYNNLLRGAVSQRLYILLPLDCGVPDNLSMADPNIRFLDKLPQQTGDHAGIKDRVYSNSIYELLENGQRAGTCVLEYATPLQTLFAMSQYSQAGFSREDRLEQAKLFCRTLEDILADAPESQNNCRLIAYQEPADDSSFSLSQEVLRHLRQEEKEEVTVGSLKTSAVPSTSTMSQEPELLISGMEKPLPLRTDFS

B1: dsDNA 30-mer (dsDNA)
DNA 1: TACAGATCTACTAGTGATCTATGACTGATC
DNA 2: GATCAGTCATAGATCACTAGTAGATCTGTA
Kd [1]: 247 ± 38 µM

B2: dsDNA90 (dsDNA)
DNA 1: TACAGATCTACTAGTGATCTATGACTGATCTGTACATGATCTACATACAGATCTACTAGTGATCTATGACTGATCTGTACATGATCTACA
DNA 2: TGTAGATCATGTACAGATCAGTCATAGATCACTAGTAGATCTGTATGTAGATCATGTACAGATCAGTCATAGATCACTAGTAGATCTGTA
Kd (STING C-terminal region [2]): 13.7 µM

B3: ssDNA90 (ssDNA)
DNA: B2 DNA 1
binding result (STING C-terminal region [3]): binds

B4: dsDNA 18-mer (dsDNA)
DNA 1: TACAGATCTACTAGTGAT
DNA 2: ATCACTAGTAGATCTGTA
Kd [4]: 337 ± 26 µM
